The source of these data is US20220073646A1 (Hoffmann-La Roche, published 2022).

Like-named read-outs stand apart in the source and are kept apart here.

Assay [1] deals with T1, human OX40 on cells (human, UniProt P43489 29-277).
T1 sequence: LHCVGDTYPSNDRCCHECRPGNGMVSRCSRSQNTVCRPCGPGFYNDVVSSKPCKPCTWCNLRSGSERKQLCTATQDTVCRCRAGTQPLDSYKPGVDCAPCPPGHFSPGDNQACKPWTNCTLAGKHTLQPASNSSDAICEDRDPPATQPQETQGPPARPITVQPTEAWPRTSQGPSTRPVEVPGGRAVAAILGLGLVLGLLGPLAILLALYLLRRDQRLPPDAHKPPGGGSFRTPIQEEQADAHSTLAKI
In words: flow cytometry, activated human CD4 T cells. Background: In flow cytometry, cells or beads pass a laser one at a time.

The target in assay [2] is T2, recombinant human OX40 Fc(kih) (human, UniProt P0DOX5 223-449 = IgG part, biotin on C-terminal Avi tag where used biotinylated).
T2 construct: antigen Fc knob chain plus Fc hole chain; also called monomeric human OX40 antigen Fc(kih) fusion; biotinylated human OX40
In words: SPR, captured IgG, OX40 Fc(kih) analyte. A general note: In SPR one partner is held on a chip, and binding of the other changes the refractive index at the surface.

The target in assay [3] is recombinant murine OX40 Fc(kih) (murine, UniProt P0DOX5 223-449 = IgG part, biotin on C-terminal Avi tag). Put plainly: SPR avidity format, murine OX40 Fc(kih) on SA chip.
Assay [4] addresses T1, human OX40 on cells. Put plainly: cell-based or functional assay.
Assay [5] deals with T3, dimeric human OX40 Fc fusion with a C-terminal Ha tag (human).
T3 construct: also called recombinant human Ox40 Fc; huOx40-Fc
In words: SPR, OX40 Fc held on OX40 ligand.

For assay [6], the target named is T4, recombinant murine OX40 (cleaved by AcTEV digestion) (murine, UniProt P47741 20-211).
T4 construct: Fc removed from murine OX40 Fc(kih)
T4 sequence: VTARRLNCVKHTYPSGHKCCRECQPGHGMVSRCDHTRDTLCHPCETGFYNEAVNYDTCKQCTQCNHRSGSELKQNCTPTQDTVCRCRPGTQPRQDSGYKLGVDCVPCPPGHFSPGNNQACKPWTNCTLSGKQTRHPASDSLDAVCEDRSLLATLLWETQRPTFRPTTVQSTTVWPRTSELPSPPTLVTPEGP
Put plainly: SPR, captured IgG, AcTEV-cleaved murine OX40 analyte.

Assay [7] deals with T1, human OX40 on cells. Put plainly: cell-based or functional assay. The source holds these as a separate data set.
Assay [8] concerns the target T5, recombinant human OX40 His (human).
T5 construct: ectodomain with avi and hexahistidine tag; also called human Ox40 avi His
T5 chain: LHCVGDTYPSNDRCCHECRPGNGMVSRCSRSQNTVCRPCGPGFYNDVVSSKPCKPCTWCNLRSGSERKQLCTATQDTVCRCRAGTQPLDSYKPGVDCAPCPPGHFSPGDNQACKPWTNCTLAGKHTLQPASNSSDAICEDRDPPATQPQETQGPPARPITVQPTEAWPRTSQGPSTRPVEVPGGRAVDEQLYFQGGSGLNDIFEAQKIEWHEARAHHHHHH
Put plainly: SPR, captured IgG, OX40 His analyte.

Assay [9] addresses T6, cynomolgus OX40 on activated cynomolgus PBMC (cynomolgus, UniProt P43489 29-214 (human entry)).
T6 construct: whole, on cells
T6 chain: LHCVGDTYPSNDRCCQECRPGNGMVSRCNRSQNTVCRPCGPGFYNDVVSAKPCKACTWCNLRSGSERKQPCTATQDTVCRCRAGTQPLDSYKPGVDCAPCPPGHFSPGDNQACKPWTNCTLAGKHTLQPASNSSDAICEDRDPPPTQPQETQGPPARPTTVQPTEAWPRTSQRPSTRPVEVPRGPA
In words: flow cytometry, activated cynomolgus CD4 T cells.

The target in assay [10] is recombinant cynomolgus OX40 Fc(kih) (cynomolgus, UniProt P0DOX5 223-449 = IgG part, biotin on C-terminal Avi tag where used biotinylated). In words: SPR, captured IgG, cyno OX40 Fc(kih) analyte.
In assay [11] the target is recombinant cynomolgus 4-1BB Fc(kih) (cynomolgus, UniProt P0DOX5 223-449 = IgG part, biotin on C-terminal Avi tag where used biotinylated). Put plainly: SPR, captured IgG, cyno 4-1BB Fc(kih) analyte.
Assay [12] addresses T7, hu4-1BB-SNAP fusion protein on Hek293 EBNA cells (human, UniProt Q07011 24-255, labeled with the FRET donor Terbium).
T7 construct: not shown: SNAP tag
Put plainly: cell FRET competition against d2-labeled anti-4-1BB tracer, 4 h.

Assay [13] addresses T8, human 4-1BB on cells (human, UniProt Q07011 24-255). Put plainly: cell-based or functional assay.
Assay [14] has as its target T8, human 4-1BB on cells. Put plainly: flow cytometry, activated human CD8 T cells.
The target in assay [15] is T9, cynomolgus 4-1BB on activated cynomolgus PBMC (cynomolgus, UniProt Q07011 24-255 (human entry)).
T9 chain: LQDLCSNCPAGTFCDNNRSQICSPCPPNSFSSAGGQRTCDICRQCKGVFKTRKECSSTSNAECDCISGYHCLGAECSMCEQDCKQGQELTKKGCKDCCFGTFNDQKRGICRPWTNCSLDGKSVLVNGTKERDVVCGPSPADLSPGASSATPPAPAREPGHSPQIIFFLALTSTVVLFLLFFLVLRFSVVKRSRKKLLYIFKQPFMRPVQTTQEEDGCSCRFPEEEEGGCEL
Put plainly: flow cytometry, activated cynomolgus CD8 T cells.

The target of assay [16] is T10, human fibroblast activation protein (huFAP) on cells (human, UniProt Q12884 1-760).
T10 construct: also called NIH/3T3-huFAP clone 39; NIH/3T3-huFAP clone 19
Put plainly: flow cytometry, WM-266-4 and NIH/3T3-huFAP clone 19.

Assay [17] has as its target T11, mouse 4-1BB on activated mouse splenocytes (mouse, UniProt P20334 24-256). Put plainly: flow cytometry, activated mouse T cells.
Assay [18] deals with T12, recombinant human 4-1BB Fc(kih) (human, UniProt P0DOX5 223-449 = IgG part, biotin on C-terminal Avi tag where used biotinylated).
T12 construct: also called hu4-1BB; biotinylated human 4-1BB
In words: SPR, captured IgG, 4-1BB Fc(kih) analyte.

The target in assay [19] is T9, cynomolgus 4-1BB on activated …. Put plainly: flow cytometry, activated cynomolgus CD4 T cells.
The target of assay [20] is T8, human 4-1BB on cells. In words: flow cytometry, activated human CD8+ T cells.
Assay [21] addresses T11, mouse 4-1BB on activated mouse …. Put plainly: flow cytometry, activated murine CD8 T cells.
For assay [22], the target named is T12, recombinant human 4-1BB Fc(kih). Put plainly: SPR.
The target of assay [23] is T11, mouse 4-1BB on activated mouse …. In words: flow cytometry, activated murine CD4 T cells.
In assay [24] the target is T8, human 4-1BB on cells. In words: flow cytometry, activated human T cells.
Assay [25] addresses T13, recombinant murine 4-1BB Fc(kih) (murine, UniProt P0DOX5 223-449 = IgG part, biotin on C-terminal Avi tag where used biotinylated).
T13 construct: also called mu4-1BB
Put plainly: SPR avidity format, murine 4-1BB Fc(kih) on SA chip.

Assay [26] deals with T14, recombinant murine 4-1BB AcTEV (murine, UniProt P20334 24-187).
T14 construct: murine 4-1BB Fc(kih) cleaved with AcTEV protease, Fc removed
T14 sequence: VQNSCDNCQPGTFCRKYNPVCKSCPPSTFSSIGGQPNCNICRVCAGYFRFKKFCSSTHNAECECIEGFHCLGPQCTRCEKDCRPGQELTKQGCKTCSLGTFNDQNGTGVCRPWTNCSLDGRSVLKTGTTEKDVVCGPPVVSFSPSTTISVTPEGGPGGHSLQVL
Put plainly: SPR, captured IgG, murine 4-1BB AcTEV analyte.

In assay [27] the target is T15, human FAP (His-tagged ectodomain) (human, UniProt Q12884 27-760).
T15 construct: SPR texts say 'human FAP' or 'His-tagged ... dimeric FAP'; also called hu FAP; human FAP (analyte 2)
In words: SPR, human FAP as second analyte.

For assay [28], the target named is T1, human OX40 on cells. Put plainly: flow cytometry, activated human CD4 T cells. The source holds these as a separate data set.
Assay [29] concerns the target T6, cynomolgus OX40 on activated cynomolgus …. In words: flow cytometry, activated cynomolgus CD4 T cells.

B1: 20B7 P329GLALA IgG1 (antibody, V domains shown)
VH: QVQLVQSGAEVKKPGSSVKVSCKASGGTFSSYAISWVRQAPGQGLEWMGGIIPIFGTANYAQKFQGRVTITADKSTSTAYMELSSLRSEDTAVYYCARVNYPYSYWGDFDYWGQGTTVTVSS
VL: DIQMTQSPSTLSASVGDRVTITCRASQSISSWLAWYQQKPGKAPKLLIYDASSLESGVPSRFSGSGSGTEFTLTISSLQPDDFATYYCQQYQAFSLTFGQGTKVEIKR
notes: anti-OX40
What is called EC50 is the concentration giving half of the maximal effect. Low readings indicate a more potent agent, high ones a less potent agent. By Kd is commonly meant the free concentration of one partner at which half of the binding sites on the other are occupied at equilibrium, for simple one-to-one binding. Broadly, the koff is a measure of how fast the partners let go of each other. A word on the kon: it is the rate constant with which the complex forms. B1: the EC50 with human OX40 on cells [1] was found to be 1.64 nM; in assay [9], 1.52 nM. The Kd was determined as 42 nM in [2], 360 nM in [6], 5.6 nM in assay [8] and 1100 nM in assay [10]. Moreover, the off-rate constant (koff) in assay [2] was 0.0013 s⁻¹; in assay [6], 0.018 s⁻¹; in [8] it was 0.00066 s⁻¹; in assay [10], 0.0166 s⁻¹. For the same molecule, the kon in assay [2] stood at 32000 M⁻¹ s⁻¹; in assay [6] it was 49000 M⁻¹ s⁻¹; in assay [8], 120000 M⁻¹ s⁻¹; in assay [10], 15700 M⁻¹ s⁻¹. For the same molecule, the binding result in [3] and in assay [5] was “binds” each time. The “EC50 of NFκB activation in HeLa_hOx40_NFκB_luc1 reporter cells with secondary anti-human IgG Fcγ antibody” value with human OX40 on cells [4] was 2.27 nM. In addition, the “EC50 of rescuing suboptimal TCR stimulation with plate-immobilized anti-OX40 binder (preactivated human CD4 T cells)” value with human OX40 on cells [7] came to 0.09 nM.

B2: 12B3 P329GLALA IgG1 (antibody, V domains shown)
VH: QVQLVQSGAEVKKPGSSVKVSCKASGGTFSSYAISWVRQAPGQGLEWMGGIIPIFGTANYAQKFQGRVTITADKSTSTAYMELSSLRSEDTAVYYCARSEFRFYADFDYWGQGTTVTVSS
VL: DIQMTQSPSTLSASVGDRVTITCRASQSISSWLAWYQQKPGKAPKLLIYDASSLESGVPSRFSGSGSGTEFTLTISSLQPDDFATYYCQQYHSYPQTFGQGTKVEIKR
notes: anti-4-1BB; also called 12B3 IgG; 12B3 huIgG1 P329G LALA
For B2, the Kd turned out to be 20 nM in [11] and 30 nM in assay [18]. Further, the off-rate constant (koff) was determined as 0.00078 s⁻¹ in assay [11] and 0.001 s⁻¹ in assay [18]. Further, the kon in assay [11] was found to be 38000 M⁻¹ s⁻¹; in [18] it was 34000 M⁻¹ s⁻¹. The concentration giving a half-maximal response (EC50) in assay [12] is 1.4 nM; in the assay with human 4-1BB on cells [14], 0.95 nM; in [15] it was 0.47 nM; in assay [19], 0.59 nM; in the assay with human 4-1BB on cells [20], 0.4 nM. Besides, in [12], the “bracketed interval of the EC50 (not explained)” value was in the range of 0.9 to 2.1 nM. For the same molecule, the “EC50 of increase of IFNγ secretion in activated CD8+ T cells (surface-immobilized IgG)” value with human 4-1BB on cells [13] was 0.07 nM. The binding result in assay [16] and in [17] was “no binding” each time.

B3: 20G2 P329GLALA IgG1 (antibody, V domains shown)
VH: QVQLVQSGAEVKKPGSSVKVSCKASGGTFSSYAISWVRQAPGQGLEWMGGIIPIFGTANYAQKFQGRVTITADKSTSTAYMELSSLRSEDTAVYYCARSYYWESYPFDYWGQGTTVTVSS
VL: DIQMTQSPSTLSASVGDRVTITCRASQSISSWLAWYQQKPGKAPKLLIYDASSLESGVPSRFSGSGSGTEFTLTISSLQPDDFATYYCQQQHSYYTFGQGTKVEIKR
notes: also called anti-mouse 4-1BB clone 20G2 huIgG1 P329G LALA
Consider B3, for which the results for the EC50 in assay [21] and in assay [23] were 16.4 nM and 10.1 nM, respectively. Moreover, the binding result in assay [22] is given as “no binding”; in the assay with human 4-1BB on cells [24], “no binding”; in assay [25], “binds”. Besides, the Kd in [26] came out at 14 nM. For the same molecule, in assay [26], the off-rate (koff) worked out at 0.00034 s⁻¹. In assay [26], the kon is 24000 M⁻¹ s⁻¹.

B4: OX40(49B4)/DP47 P329GLALA IgG1 4+2 (bispecific antibody)
heavy: not shown
light 1: DIQMTQSPSTLSASVGDRVTITCRASQSISSWLAWYQQKPGKAPKLLIYDASSLESGVPSRFSGSGSGTEFTLTISSLQPDDFATYYCQQYSSQPYTFGQGTKVEIKRTVAAPSVFIFPPSDRKLKSGTASVVCLLNNFYPREAKVQWKVDNALQSGNSQESVTEQDSKDSTYSLSSTLTLSKADYEKHKVYACEVTHQGLSSPVTKSFNRGEC
light 2: not shown
notes: also called 4+2 (49B4/DP47); untargeted 4+2 construct
As to B4, the binding result in assay [27] is reported as “no binding (tested: 250 nM)”. Moreover, the figures for the EC50 (with human OX40 on cells [28]; in [29]) were 0.11 nM and 0.07 nM, respectively.
